Reference: patent publication US20100150860A1

Tests used:
[1] = target: human fibrin (Sigma, F5386) (human) (UniProt P02671); test: SEC-HPLC of the mixture after 1 h at 37 C; peak of the bound pair
[2] = target: human fibrin (Sigma, F5386) (human) (UniProt P02671); test: SEC-HPLC of the mixture after 1 h at 37 C; second peak (thrombin alone runs at 18.778)

human fibrin (Sigma, F5386) (human), sequence (P02671 36-629, chain 1 of 3): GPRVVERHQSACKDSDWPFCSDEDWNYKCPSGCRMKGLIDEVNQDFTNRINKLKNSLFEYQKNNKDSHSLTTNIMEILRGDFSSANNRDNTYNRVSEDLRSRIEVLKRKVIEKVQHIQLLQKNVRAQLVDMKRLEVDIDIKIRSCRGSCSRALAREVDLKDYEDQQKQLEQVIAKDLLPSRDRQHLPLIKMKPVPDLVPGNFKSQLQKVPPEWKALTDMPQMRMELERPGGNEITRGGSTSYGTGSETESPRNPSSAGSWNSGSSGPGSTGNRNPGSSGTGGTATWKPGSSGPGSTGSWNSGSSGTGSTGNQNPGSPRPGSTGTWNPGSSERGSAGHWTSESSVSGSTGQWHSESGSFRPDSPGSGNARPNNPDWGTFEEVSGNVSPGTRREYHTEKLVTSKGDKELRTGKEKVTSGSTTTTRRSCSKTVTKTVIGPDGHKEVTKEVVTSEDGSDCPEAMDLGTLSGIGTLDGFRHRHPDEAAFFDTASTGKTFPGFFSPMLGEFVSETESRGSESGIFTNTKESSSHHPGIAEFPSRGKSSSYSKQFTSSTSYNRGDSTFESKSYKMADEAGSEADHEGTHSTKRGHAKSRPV
human fibrin (Sigma, F5386) (human), sequence (P02675 45-491, chain 2 of 3, further chain): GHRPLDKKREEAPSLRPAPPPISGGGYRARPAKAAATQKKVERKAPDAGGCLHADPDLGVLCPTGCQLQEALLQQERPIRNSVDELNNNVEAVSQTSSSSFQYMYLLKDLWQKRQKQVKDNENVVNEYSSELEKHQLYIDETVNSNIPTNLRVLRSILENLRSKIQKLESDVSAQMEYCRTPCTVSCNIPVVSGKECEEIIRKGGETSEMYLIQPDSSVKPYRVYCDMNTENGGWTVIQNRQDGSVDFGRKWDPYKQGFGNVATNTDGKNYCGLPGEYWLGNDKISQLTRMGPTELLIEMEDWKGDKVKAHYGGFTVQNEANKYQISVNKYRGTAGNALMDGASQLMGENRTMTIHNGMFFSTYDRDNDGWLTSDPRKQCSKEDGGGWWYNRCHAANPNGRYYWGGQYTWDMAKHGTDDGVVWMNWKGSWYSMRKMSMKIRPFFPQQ
human fibrin (Sigma, F5386) (human), sequence (P02679 other isoform, or with tags, fused parts or gaps, chain 3 of 3, further chain): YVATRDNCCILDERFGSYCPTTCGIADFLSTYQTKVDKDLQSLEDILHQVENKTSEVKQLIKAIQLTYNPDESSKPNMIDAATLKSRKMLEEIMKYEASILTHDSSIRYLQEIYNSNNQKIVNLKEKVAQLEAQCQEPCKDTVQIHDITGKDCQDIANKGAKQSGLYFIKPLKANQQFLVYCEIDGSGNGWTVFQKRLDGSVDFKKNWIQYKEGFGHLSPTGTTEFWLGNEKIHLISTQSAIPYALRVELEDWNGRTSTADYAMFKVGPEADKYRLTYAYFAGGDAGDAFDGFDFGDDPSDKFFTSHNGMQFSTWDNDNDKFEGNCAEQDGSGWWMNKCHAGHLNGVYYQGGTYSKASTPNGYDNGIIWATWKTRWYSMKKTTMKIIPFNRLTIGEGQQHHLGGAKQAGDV

“human thrombin (National Institute for the Control of Pharmaceutical and Biological Products, Lot No. 20021105) (from UniProt P00734 328-622) (enzyme)” was tested, and the retention time (min), peak 1 [1] was 12.6 min and the retention time (min), peak 2 [2] was 18.6 min.
